In publication PMC4873981:

Biological target: Myc-MRTF, full-length Y866G mutant (UniProt P59759)
Assay: co-IP; LLC-PK1 cells co-transfected with Myc-MRTF constructs and HA-TAZ constructs, IP with anti-Myc, blot for HA; untreated or LCM 30 min

Sequence of UniProt P59759 (P59759 whole entry Y866G): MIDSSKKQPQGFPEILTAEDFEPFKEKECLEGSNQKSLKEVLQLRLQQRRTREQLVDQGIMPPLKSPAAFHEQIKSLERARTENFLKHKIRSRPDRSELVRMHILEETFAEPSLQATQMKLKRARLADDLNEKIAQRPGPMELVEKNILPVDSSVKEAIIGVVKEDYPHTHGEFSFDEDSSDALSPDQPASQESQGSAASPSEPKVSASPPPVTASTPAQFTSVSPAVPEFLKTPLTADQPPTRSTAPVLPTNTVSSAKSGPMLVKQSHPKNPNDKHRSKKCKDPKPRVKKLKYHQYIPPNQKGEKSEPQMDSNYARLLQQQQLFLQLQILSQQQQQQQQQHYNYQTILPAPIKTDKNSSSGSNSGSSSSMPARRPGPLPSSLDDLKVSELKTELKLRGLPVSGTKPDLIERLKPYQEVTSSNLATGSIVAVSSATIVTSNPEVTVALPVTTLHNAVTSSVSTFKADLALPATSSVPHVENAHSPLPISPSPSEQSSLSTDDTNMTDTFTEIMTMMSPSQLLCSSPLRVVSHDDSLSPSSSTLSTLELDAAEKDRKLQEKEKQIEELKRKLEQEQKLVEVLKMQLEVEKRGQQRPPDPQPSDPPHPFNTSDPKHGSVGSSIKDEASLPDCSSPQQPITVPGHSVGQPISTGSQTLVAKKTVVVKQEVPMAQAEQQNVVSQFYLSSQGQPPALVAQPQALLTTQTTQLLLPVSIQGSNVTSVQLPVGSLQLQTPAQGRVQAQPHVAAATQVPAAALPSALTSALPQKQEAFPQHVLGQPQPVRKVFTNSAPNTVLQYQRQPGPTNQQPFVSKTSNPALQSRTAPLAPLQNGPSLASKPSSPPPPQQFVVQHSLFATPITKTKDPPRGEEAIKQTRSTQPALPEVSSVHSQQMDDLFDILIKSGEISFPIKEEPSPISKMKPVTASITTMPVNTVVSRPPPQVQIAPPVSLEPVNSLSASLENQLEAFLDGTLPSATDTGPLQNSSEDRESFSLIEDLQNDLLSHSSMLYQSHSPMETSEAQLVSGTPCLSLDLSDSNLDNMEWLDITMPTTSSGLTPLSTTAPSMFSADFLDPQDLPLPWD

reduction in association against WT MRTF: > 50%
Substance: HA-TAZ, wild type (from UniProt Q9GZV5 1-400) (natural protein)
